Experiments:
[1] = target: Nogo receptor-1 (species and form not stated); assay: method not given
[2] = target: T1, mutant peptide Arg119His LDLSDNAQLHVVDPTT (rat); assay: ELISA, peptide on MaxiSorp plate, serial dilution of 7E11
T1 peptide: LDLSDNAQLHVVDPTT

[3] = target: T2, mutant peptide Gln117Ala LDLSDNAALRVVDPTT (rat); assay: as above
T2 construct: also called Gla117Ala (so in the source)
T2 peptide: LDLSDNAALRVVDPTT

sNogoR344-Fc = target: T3, sNogoR344-Fc (rat, UniProt Q99M75 26-344); assay: SPA bead competition: inhibition of 125I-Nogo66 binding to immobilised sNogoR344-Fc
T3 construct: also called Fc-sNogoR344; Ig-sNogoR344; not shown: hinge region and Fc region of rat IgG1
T3 chain: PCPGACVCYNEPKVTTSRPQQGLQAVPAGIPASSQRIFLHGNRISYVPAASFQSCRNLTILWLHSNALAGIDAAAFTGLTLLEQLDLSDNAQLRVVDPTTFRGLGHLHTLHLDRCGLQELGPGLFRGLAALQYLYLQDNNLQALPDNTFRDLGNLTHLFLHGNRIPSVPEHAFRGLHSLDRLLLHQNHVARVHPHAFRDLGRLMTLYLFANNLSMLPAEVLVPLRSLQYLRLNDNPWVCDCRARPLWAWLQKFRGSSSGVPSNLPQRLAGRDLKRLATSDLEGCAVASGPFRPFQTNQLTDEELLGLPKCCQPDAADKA

B1: monoclonal antibody 7E11 (antibody, V domains shown)
VH: VQLQESGAELVMPGASVKMSCKASGYTFTDYWMHWVKQRPGQGLEWIGAIDPSDSYSSYNQNFKGKATLTVDGSSSTAYMQLSSLTSEDSAVYYCARRITEAGAWFAYWGQGTTVT
VL: DVVMTQTPLSLPVSLGDQASISCRSSQSLVHSNGNTYLHWYLQKPGQSPKLLIYKVSNRFSGVPDRFSGSGSGTDFTLKISRVDAEDLGVYFCSQSTHVPFTFGGGTKLEIKR
[1]
  Kd: 100 nM
[2]
  fold increase of EC50 against the original peptide: 25 fold
[3]
  fold increase of EC50 against the original peptide: 30 fold
sNogoR344-Fc
  IC50: 400 nM
